The target in assay [1] is T1, SARS-CoV-2 receptor-binding domain (RBD) (SARS-CoV-2, UniProt P0DTC2). Nature of the assay: ELISA. A general note: An ELISA detects its analyte on a solid surface through an enzyme-linked reagent.
Assay [2] addresses T1, SARS-CoV-2 receptor-binding domain (RBD). Nature of the assay: crystal structure.

Here are results for four molecules from article PMC8064835 (Cell, 2021).

B1: BG4–14 IgG1 (antibody, V domains shown)
VH: not shown
VL: QSALTQPASVSGSPGQSITISCTGTSSDVGSYNLVSWYQHHPGKAPKLMIYEVSKRPSGVSNRFSGSKSGNTASLTISGLQAEDETDYYCCSYAGSSTLVFGGGTKLTVL
With B1, the binding result in assay [1] is listed as “binds”.

B2: BG10–19 IgG1 (antibody, V domains shown)
VH: EVQLVQSGAEVKKPGESLKISCKGSGYSFTSYWIGWVRQMPGKGLEWMGVIYPGDSDTRYSPSFQGQVTISADKSISTAYLQWSSLKASDTAMYYCARTQWGYNYGSHFFYMDVWGKGTTVTVSS
VL: QSVLTQPPSASGTPGQRVTISCSGSSSNIGSDHVYWYQQLPGTAPKLFIYRNNQRPSGVPDRFSGSKSGTSASLAISGLRSEDEADYYCAAWDASLSGYVFGTGTKVTVL
Turning to B2, in assay [1], the binding result was “binds”.

B3: BG10–19 Fab (Fab, V domains shown)
VH: EVQLVQSGAEVKKPGESLKISCKGSGYSFTSYWIGWVRQMPGKGLEWMGVIYPGDSDTRYSPSFQGQVTISADKSISTAYLQWSSLKASDTAMYYCARTQWGYNYGSHFFYMDVWGKGTTVTVSS
VL: QSVLTQPPSASGTPGQRVTISCSGSSSNIGSDHVYWYQQLPGTAPKLFIYRNNQRPSGVPDRFSGSKSGTSASLAISGLRSEDEADYYCAAWDASLSGYVFGTGTKVTVL
Turning to B3, the binding result in assay [1] is recorded as “binds”.

B4: BG4–25 Fab (Fab, V domains shown)
VH: EVQLVESGGGLIQPGGSLRLSCAASGITVVRNYMTWVRQAPGKGLEWVSVIYSGGTTYYADSVKGRFTISRDNSKNTMYLQMNSLRAEDTAIYYCARDLEVVGAMDVWGQGTTVTVSS
VL: EIVLTQSPGTLSLSPGERATLSCRASQSVPSSYLAWYQQKPGQAPRLLIYGASSRATGIPDRFSGSGSGTDFTLTISRLEPEDFAVYYCQQYGSPMYTFGQGTKLEIK
For the molecule B4, the binding result in assay [2] is reported as “binds”.
